Test results taken from ChEMBL document CHEMBL1132501, “Synthesis and anti-Helicobacter pylori activity of FR182024, a new cephem derivative” (1999).

Columns and labels:
[1] = substrate: O=C(Cc1cccs1)N[C@@H]1C(=O)N2C(C(=O)[O-])=C(C[n+]3ccccc3)CS[C@H]12; assay: The compound was tested against Bacteroides fragilis FP784 and its stability towards beta-lactamase relative to cephaloridine was evaluated; assay type: functional
[2] = substrate: O=C(Cc1cccs1)N[C@@H]1C(=O)N2C(C(=O)[O-])=C(C[n+]3ccccc3)CS[C@H]12; assay: The compound was tested against Bacteroides fragilis FP784 and its stability towards beta-lactamase was evaluated; assay type: functional

B1: Beta-lactamase (Enterobacter cloacae), P05364 (protein)
chain: MMRKSLCCALLLGISCSALATPVSEKQLAEVVANTITPLMKAQSVPGMAVAVIYQGKPHYYTFGKADIAANKPVTPQTLFELGSISKTFTGVLGGDAIARGEISLDDAVTRYWPQLTGKQWQGIRMLDLATYTAGGLPLQVPDEVTDNASLLRFYQNWQPQWKPGTTRLYANASIGLFGALAVKPSGMPYEQAMTTRVLKPLKLDHTWINVPKAEEAHYAWGYRDGKAVRVSPGMLDAQAYGVKTNVQDMANWVMANMAPENVADASLKQGIALAQSRYWRIGSMYQGLGWEMLNWPVEANTVVEGSDSKVALAPLPVAEVNPPAPPVKASWVHKTGSTGGFGSYVAFIPEKQIGIVMLANTSYPNPARVEAAYHILEALQ
Vmax [1]: 1
Km [2]: 31.7 µg/mL
